Reference: doi:10.1101/442517 (bioRxiv, 2018)

Legend:
[1] = target: RaxX21-sY (tyrosine sulfated synthetic 21-residue derivative of RaxX, residues 35-55) (Xanthomonas oryzae pv. oryzae); assay: MST
[2] = target: RaxX21-nY (non-sulfated synthetic 21-residue derivative of RaxX, residues 35-55) (Xanthomonas oryzae pv. oryzae); assay: MST

B1: XA21 extracellular domain (XA21^ECD; XA21 residues 23-649) (domain or fragment)
chain: SDDDGDAAGDELALLSFKSSLLYQGGQSLASWNTSGHGQHCTWVGVVCGRRRRRHPHRVVKLLLRSSNLSGIISPSLGNLSFLRELDLGDNYLSGEIPPELSRLSRLQLLELSDNSIQGSIPAAIGACTKLTSLDLSHNQLRGMIPREIGASLKHLSNLYLYKNGLSGEIPSALGNLTSLQEFDLSFNRLSGAIPSSLGQLSSLLTMNLGQNNLSGMIPNSIWNLSSLRAFSVRENKLGGMIPTNAFKTLHLLEVIDMGTNRFHGKIPASVANASHLTVIQIYGNLFSGIITSGFGRLRNLTELYLWRNLFQTREQDDWGFISDLTNCSKLQTLNLGENNLGGVLPNSFSNLSTSLSFLALELNKITGSIPKDIGNLIGLQHLYLCNNNFRGSLPSSLGRLKNLGILLAYENNLSGSIPLAIGNLTELNILLLGTNKFSGWIPYTLSNLTNLLSLGLSTNNLSGPIPSELFNIQTLSIMINVSKNNLEGSIPQEIGHLKNLVEFHAESNRLSGKIPNTLGDCQLLRYLYLQNNLLSGSIPSALGQLKGLETLDLSSNNLSGQIPTSLADITMLHSLNLSFNSFVGEVPTIGAFAAASGISIQGNAKLCGGIPDLHLPRCCPLLENRK
Kd [1]: 20 nM | Kd [2]: 400 nM
